Measured values reported in the supplement of paper PMC10724198.
± gives the standard deviation of the averaged measurements.

Tests used:
Saccharomyces cerevisiae [1] = test: protein stability index of tFT-peptide fusion (C-terminal peptide) (PSI (0-1 scale)); higher = more stable (slower turnover)
Experimental: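 MPS profiling in S. cerevisiae of the tFT-X12 degron library: putative degron peptides plus stable controls, 12 aa, fused to the C-terminus of a sfGFP-mCherry timer. Cells are FACS-sorted into 8 mCherry/sfGFP bins and deep-sequenced. PSI runs from 0 (unstable) to 1 (stable). Backgrounds are wild type, das1Δ and doa10Δ at 30 °C, and wild type, das1Δ, cdc34-1 and cdc53-1 at 37 °C; 2-3 technical replicates each.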

Saccharomyces cerevisiae [2] = test: as above; conditions: genetic background: wild type; temperature: 30 C
[3] = genetic background: cdc34-1, temperature: 37 C
[4] = genetic background: cdc53-1, temperature: 37 C
[5] = genetic background: das1 deletion, temperature: 30 C
[6] = genetic background: das1 deletion, temperature: 37 C
[7] = genetic background: doa10 deletion, temperature: 30 C
[8] = genetic background: wild type, temperature: 30 C
[9] = genetic background: wild type, temperature: 37 C
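Note: PSI is a weighted mean of sequencing reads over stability bins, variants kept only with over 10 reads, mCherry proximal and sfGFP distal, peptide attached via GGGS linker.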

| Sequence | protein stability index (Saccharomyces cerevisiae [1]; [3]) | protein stability index (Saccharomyces cerevisiae [1]; [4]) | protein stability index (Saccharomyces cerevisiae [1]; [5]) | protein stability index (Saccharomyces cerevisiae [1]; [6]) | protein stability index (Saccharomyces cerevisiae [1]; [7]) | protein stability index (Saccharomyces cerevisiae [1]; [8]) | protein stability index (Saccharomyces cerevisiae [1]; [9]) | protein stability index (Saccharomyces cerevisiae [2]) |
| --- | --- | --- | --- | --- | --- | --- | --- | --- |
| SWAILFVLEGFK | 0.4673 ± 0.0029 | 0.548 ± 0.058 | 0.37 ± 0.021 | 0.561 ± 0.0092 | 0.318 ± 0.019 | 0.366 ± 0.011 | 0.5837 ± 0.004 | 0.477 ± 0.067 |
| LAGLFICTLISC | 0.159 ± 0.0021 | 0.176 ± 0.0055 | 0.203 ± 0.023 | 0.2775 ± 0.0013 | 0.185 ± 0.012 | 0.191 ± 0.029 | 0.2449 ± 0.00042 | 0.254 ± 0.071 |
| VFLSLVFFFIIT | 0.254 ± 0.011 | 0.343 ± 0.0077 | 0.282 ± 0.035 | 0.43 ± 0.005 | 0.287 ± 0.013 | 0.275 ± 0.019 | 0.392 ± 0.021 | 0.367 ± 0.026 |
| PLGGLVILLLSS | 0.488 ± 0.017 | 0.541 ± 0.0075 | 0.349 ± 0.028 | 0.548 ± 0.014 | 0.194 ± 0.0033 | 0.224 ± 0.017 | 0.4074 ± 0.00071 | 0.293 ± 0.014 |
| FLVGVARCPFLV | 0.632 ± 0.069 | 0.7 ± 0.015 | 0.587 ± 0.018 | 0.725 ± 0.053 | 0.244 ± 0.021 | 0.254 ± 0.034 | 0.401 ± 0.012 | 0.361 ± 0.012 |
| FLLLSCLVRRSF | 0.508 ± 0.054 | 0.6 ± 0.018 | 0.454 ± 0.017 | 0.611 ± 0.01 | 0.404 ± 0.014 | 0.429 ± 0.0061 | 0.549 ± 0.018 | 0.4628 ± 0.00075 |
| LFFRCVFRISFF | 0.274 ± 0.015 | 0.266 ± 0.0095 | 0.302 ± 0.03 | 0.387 ± 0.006 | 0.351 ± 0.027 | 0.254 ± 0.015 | 0.331 ± 0.0072 | 0.327 ± 0.0064 |
| GGGSRICIVRLS | 0.654 ± 0.092 | 0.7229 ± 0.0024 | 0.636 ± 0.017 | 0.722 ± 0.0083 | 0.178 ± 0.025 | 0.197 ± 0.023 | 0.406 ± 0.03 | 0.337 ± 0.077 |
| GFSFVCFSPFLF | 0.667 ± 0.041 | 0.779 ± 0.02 | 0.65 ± 0.0058 | 0.745 ± 0.011 | 0.3864 ± 0.0023 | 0.41 ± 0.02 | 0.5401 ± 0.001 | 0.42 ± 0.038 |
| WRIDVTIVCLGY | 0.157 ± 0.03 | 0.256 ± 0.042 | 0.19 ± 0.033 | 0.3084 ± 0.0029 | 0.169 ± 0.01 | 0.202 ± 0.029 | 0.294 ± 0.019 | 0.3 ± 0.03 |
| FYVIFRRACLSV | 0.281 ± 0.0084 | 0.32 ± 0.016 | 0.234 ± 0.03 | 0.3605 ± 0.0029 | 0.1681 ± 0.00044 | 0.195 ± 0.0079 | 0.299 ± 0.0099 | 0.292 ± 0.077 |
| LVVEALFYVLVS | 0.036 ± 0.011 | 0.0563 ± 0.025 | 0.126 ± 0.025 | 0.181 ± 0.0096 | 0.0851 ± 0.0085 | 0.107 ± 0.021 | 0.124 ± 0.014 | 0.219 ± 0.054 |
| WGRTIGATFTGR | 0.698 ± 0.029 | 0.779 ± 0.0021 | 0.644 ± 0.024 | 0.748 ± 0.0085 | 0.669 ± 0.01 | 0.685 ± 0.013 | 0.746 ± 0.019 | 0.595 ± 0.15 |
| RDWCYFIRVCSV | 0.604 ± 0.064 | 0.616 ± 0.017 | 0.479 ± 0.026 | 0.6139 ± 0.006 | 0.364 ± 0.015 | 0.382 ± 0.021 | 0.561 ± 0.01 | 0.383 ± 0.12 |
| VPLVQRARLRLF | 0.639 ± 0.059 | 0.715 ± 0.02 | 0.607 ± 0.027 | 0.732 ± 0.026 | 0.109 ± 0.015 | 0.114 ± 0.012 | 0.206 ± 0.028 | 0.146 ± 0.025 |
| GQLKGKDETEKK | 0.7023 ± 0.005 | 0.749 ± 0.027 | 0.616 ± 0.023 | 0.769 ± 0.029 | 0.645 ± 0.027 | 0.655 ± 0.051 | 0.691 ± 0.0094 | 0.191 ± 0.021 |
| IKPSVHILIRTL | 0.544 ± 0.019 | 0.57 ± 0.017 | 0.446 ± 0.046 | 0.571 ± 0.02 | 0.118 ± 0.022 | 0.14 ± 0.0072 | 0.222 ± 0.0071 | 0.21 ± 0.0069 |
| FVVFAFGVLPVK | 0.496 ± 0.005 | 0.5131 ± 0.0027 | 0.389 ± 0.028 | 0.552 ± 0.012 | 0.361 ± 0.019 | 0.388 ± 0.039 | 0.514 ± 0.0089 | 0.466 ± 0.011 |
| RSLRLFGCLGSL | 0.756 ± 0.029 | 0.762 ± 0.027 | 0.647 ± 0.019 | 0.751 ± 0.021 | 0.658 ± 0.039 | 0.647 ± 0.023 | 0.753 ± 0.016 | 0.7185 ± 0.0059 |
| VLCHLVLYVGDK | 0.454 ± 0.013 | 0.569 ± 0.022 | 0.383 ± 0.035 | 0.588 ± 0.013 | 0.3413 ± 0.0027 | 0.397 ± 0.052 | 0.534 ± 0.029 | 0.4359 ± 0.0017 |
| DHSIYYGVAKVF | 0.484 ± 0.017 | 0.652 ± 0.012 | 0.5745 ± 0.0018 | 0.694 ± 0.018 | 0.0729 ± 0.022 | 0.0841 ± 0.024 | 0.09554 ± 0.00036 | 0.163 ± 0.055 |
| LLVSCPLVLRFR | 0.426 ± 0.048 | 0.41 ± 0.02 | 0.437 ± 0.01 | 0.576 ± 0.058 | 0.6177 ± 0.0033 | 0.431 ± 0.028 | 0.511 ± 0.012 | 0.53 ± 0.048 |
| ILGDPHLALIFP | 0.689 ± 0.02 | 0.757 ± 0.012 | 0.657 ± 0.026 | 0.749 ± 0.018 | 0.652 ± 0.028 | 0.666 ± 0.021 | 0.7324 ± 0.0016 | 0.703 ± 0.022 |
| RVDEVVKKLRTL | 0.62 ± 0.027 | 0.665 ± 0.047 | 0.667 ± 0.012 | 0.707 ± 0.0091 | 0.0971 ± 0.035 | 0.107 ± 0.028 | 0.17 ± 0.025 | 0.195 ± 0.043 |
| LLYSLVALGVCV | 0.329 ± 0.0041 | 0.314 ± 0.011 | 0.28 ± 0.032 | 0.403 ± 0.0012 | 0.24309 ± 0.00016 | 0.277 ± 0.019 | 0.3667 ± 0.0013 | 0.3805 ± 0.0005 |
| SIFSIFFLVRNF | 0.4535 ± 0.0038 | 0.551 ± 0.029 | 0.436 ± 0.037 | 0.59 ± 0.023 | 0.117 ± 0.0077 | 0.12 ± 0.039 | 0.195 ± 0.028 | 0.217 ± 0.0043 |
| SSAQKVMELQIV | 0.664 ± 0.011 | 0.7179 ± 0.0062 | 0.648 ± 0.018 | 0.7361 ± 0.0023 | 0.223 ± 0.0048 | 0.257 ± 0.042 | 0.467 ± 0.035 | 0.404 ± 0.011 |
| LRCLAIFLYRAF | 0.576 ± 0.045 | 0.6238 ± 0.0039 | 0.49 ± 0.02 | 0.644 ± 0.015 | 0.399 ± 0.013 | 0.404 ± 0.02 | 0.563 ± 0.015 | 0.466 ± 0.013 |
